{"source": "paper PMC10957913", "about": "“GAS41 modulates ferroptosis by anchoring NRF2 on chromatin” (Nature Communications, 2024)", "binders": {"B1": {"name": "GST-NRF2-CT (Neh1 and Neh3 domains of NRF2, AA. 434-605) (domain or fragment, UniProt Q16236 434-605, looked up)", "chain": "PGHRKTPFTKDKHSSRLEAHLTRDELRAKALHIPFPVEKIINLPVVDFNEMMSKEQFNEAQLALIRDIRRRGKNKVAAQNCRKRKLENIVELEQDLDHLKDEKEKLLKEKGENDKSLHLLKKQLSTLYLEVFSMLRDEDGKPYSPSEYSLQQTRDGNVFLVPKSKKPDVKKN", "notes": "NRF2, Neh1 and Neh3 domains, amino acids 434-605; That the 434-605 fragment is the construct called GST-NRF2-CT in the methods is inferred"}}, "target": "T1, Flag-tagged GAS41, purified (human, UniProt O95619 1-227)", "T1 construct": "GAS41, human, full-length cDNA amplified from A549 cDNA; also called purified GAS41 proteins", "T1 sequence (O95619 whole entry, the tested form may be a part)": "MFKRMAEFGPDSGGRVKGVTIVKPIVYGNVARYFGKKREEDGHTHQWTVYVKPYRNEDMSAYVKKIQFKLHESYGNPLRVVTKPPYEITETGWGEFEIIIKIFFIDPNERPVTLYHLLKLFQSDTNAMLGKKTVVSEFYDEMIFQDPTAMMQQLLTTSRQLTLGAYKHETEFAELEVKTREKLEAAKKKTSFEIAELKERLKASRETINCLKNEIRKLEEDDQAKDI", "assay": "pull-down; GST or GST-NRF2 fragments on GST Bind Resin incubated with purified GAS41 in BC200 buffer for 4 h at 4 °C, washed six times with BC200; western blot", "settings": "both partners purified"}
{"binder": "B1", "values": [{"measurement": "binding result", "value": "binds"}]}
